This passage reports degradation_or_half_life and localisation_or_trafficking results from publication PMC11997252.

Details in all cases: glycan lost; control: Fzd4 WT
Data set [1] can be described thus: cycloheximide chase, Western blot, HEK293T.
A short description of data set [2]: plasma membrane fractionation, Western blot. Background: Immunoblotting shows a protein as a band on a membrane.
Data set [3] can be described thus: SNAP-tag staining with membrane-impermeant dye.
The nature of data set [4]: immunofluorescence co-localisation with ER marker CANX.
Data set [5] can be described thus: surface biotinylation, streptavidin pull-down, HEK293T.

B1: Fzd4: N59/144Q (protein)
parent chain: MAWRGAGPSVPGAPGGVGLSLGLLLQLLLLLGPARGFGDEEERRCDPIRISMCQNLGYNVTKMPNLVGHELQTDAELQLTTFTPLIQYGCSSQLQFFLCSVYVPMCTEKINIPIGPCGGMCLSVKRRCEPVLKEFGFAWPESLNCSKFPPQNDHNHMCMEGPGDEEVPLPHKTPIQPGEECHSVGTNSDQYIWVKRSLNCVLKCGYDAGLYSRSAKEFTDIWMAVWASLCFISTAFTVLTFLIDSSRFSYPERPIIFLSMCYNIYSIAYIVRLTVGRERISCDFEEAAEPVLIQEGLKNTGCAIIFLLMYFFGMASSIWWVILTLTWFLAAGLKWGHEAIEMHSSYFHIAAWAIPAVKTIVILIMRLVDADELTGLCYVGNQNLDALTGFVVAPLFTYLVIGTLFIAAGLVALFKIRSNLQKDGTKTDKLERLMVKIGVFSVLYTVPATCVIACYFYEISNWALFRYSADDSNMAVEMLKIFMSLLVGITSGMWIWSAKTLHTWQKCSNRLVNSGKVKREKRGNGWVKPGKGSETVV
Consider B1, for which the degradation_or_half_life result in data set [1] is “decreases”. Moreover, the localisation_or_trafficking entry in data set [2] was “abolishes”; in data set [3], “abolishes”; in data set [4], “changes”; in data set [5], “abolishes”.

B2: Fzd4: N144Q (protein)
parent chain: B1 parent chain
For B2, in data set [1], the degradation_or_half_life result is “decreases”. Moreover, the localisation_or_trafficking result in data set [2], in data set [3] and in data set [5] was “abolishes” each time.

B3: Fzd4: N59Q (protein)
parent chain: B1 parent chain
B3: the degradation_or_half_life entry in data set [1] was “decreases”. For the same protein, the localisation_or_trafficking entry in data set [2], in data set [3] and in data set [5] was “abolishes” in each case.
